Measurements from publication doi:10.1101/2020.09.30.318261.

Target: SARS-CoV prefusion stabilised spike ectodomain trimer (SARS-CoV) (UniProt P59594)
Assay: cryo-EM structure

Substance: SARS-CoV prefusion stabilised spike ectodomain trimer (from UniProt P59594 14-1160) (domain or fragment)
- stoichiometry N: 3
